In patent US20180155451A1 (published 2018):

T1: FcγRIIa R (human, UniProt P12318 34-217)
T1 construct: extracellular domain; also called FcgRIIa R; FcγRIIa type R
T1 sequence (looked up): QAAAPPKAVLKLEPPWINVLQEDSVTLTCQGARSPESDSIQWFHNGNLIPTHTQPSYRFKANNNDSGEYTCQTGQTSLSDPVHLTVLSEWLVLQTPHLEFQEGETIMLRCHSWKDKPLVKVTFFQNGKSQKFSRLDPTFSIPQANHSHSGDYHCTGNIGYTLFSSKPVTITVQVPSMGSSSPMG

T2: FcγRIIb (human, UniProt P31994 43-217)
T2 construct: extracellular domain; also called FcgRIIb
T2 sequence (looked up): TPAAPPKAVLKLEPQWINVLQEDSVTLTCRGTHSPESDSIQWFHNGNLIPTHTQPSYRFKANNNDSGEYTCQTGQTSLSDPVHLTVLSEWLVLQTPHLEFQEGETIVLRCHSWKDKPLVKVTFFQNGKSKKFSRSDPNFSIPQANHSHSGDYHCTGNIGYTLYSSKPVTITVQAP


How the values were obtained:
FcγRIIa R [1] = biological target: T1, FcγRIIa R; experiment: He/Con_2aR divided by He/Con_2b (FcγRIIa R over FcγRIIb); SPR (Biacore)
FcγRIIa R [2] = biological target: T1, FcγRIIa R; experiment: SPR (Biacore), captured antibody, FcγR analyte; binding relative to GpH7-A5/GpH7-B3/GpL16-k0 = 100
FcγRIIb = biological target: T2, FcγRIIb; experiment: as above

Row | Binder | IIaR/IIb (He_2aR/2b) (FcγRIIa R [1]) | He/Con_2aR (IIaR binding) (FcγRIIa R [2]) | He/Con_2b (IIb binding) (FcγRIIb)
1 | GpH7-A5/GpH7-B3 variant A330_13S/GpL16-k0 (antibody, human IgG1, kappa, He Ab; IgG1; mutation in one H chain only) heavy 1: not shown heavy 2: not shown light: DIVMTQSPLSLPVTPGEPASISCQASESLVHSNRNTYLHWYLQKPGQSPQLLIYKVSNRFSGVPDRFSGSGSGTDFTLKISRVEAEDVGVYYCSQNTHVPPTFGQGTKVEIERTVAAPSVFIFPPSDEQLKSGTASVVCLLNNFYPREAKVQWKVDNALQSGNSQESVTEQDSKDSTYSLSSTLTLSKADYEKHKVYACEVTHQGLSSPVTKSFNRGEC | 1.47 ratio | 60.8 control=100 | 41.3 control=100
2 | GpH7-A5/GpH7-B3 variant N325_19Q/GpL16-k0 (antibody, human IgG1, kappa, He Ab; IgG1; mutation in one H chain only) heavy 1: not shown heavy 2: not shown light: DIVMTQSPLSLPVTPGEPASISCQASESLVHSNRNTYLHWYLQKPGQSPQLLIYKVSNRFSGVPDRFSGSGSGTDFTLKISRVEAEDVGVYYCSQNTHVPPTFGQGTKVEIERTVAAPSVFIFPPSDEQLKSGTASVVCLLNNFYPREAKVQWKVDNALQSGNSQESVTEQDSKDSTYSLSSTLTLSKADYEKHKVYACEVTHQGLSSPVTKSFNRGEC | 1.33 ratio | 92.1 control=100 | 69.1 control=100
3 | GpH7-A5/GpH7-B3 variant P329_02A/GpL16-k0 (antibody, human IgG1, kappa, He Ab; IgG1; mutation in one H chain only) heavy 1: not shown heavy 2: not shown light: DIVMTQSPLSLPVTPGEPASISCQASESLVHSNRNTYLHWYLQKPGQSPQLLIYKVSNRFSGVPDRFSGSGSGTDFTLKISRVEAEDVGVYYCSQNTHVPPTFGQGTKVEIERTVAAPSVFIFPPSDEQLKSGTASVVCLLNNFYPREAKVQWKVDNALQSGNSQESVTEQDSKDSTYSLSSTLTLSKADYEKHKVYACEVTHQGLSSPVTKSFNRGEC | 1.45 ratio | 58.9 control=100 | 40.5 control=100
4 | GpH7-A5/GpH7-B3 variant A330_18N/GpL16-k0 (antibody, human IgG1, kappa, He Ab; IgG1; mutation in one H chain only) heavy 1: not shown heavy 2: not shown light: DIVMTQSPLSLPVTPGEPASISCQASESLVHSNRNTYLHWYLQKPGQSPQLLIYKVSNRFSGVPDRFSGSGSGTDFTLKISRVEAEDVGVYYCSQNTHVPPTFGQGTKVEIERTVAAPSVFIFPPSDEQLKSGTASVVCLLNNFYPREAKVQWKVDNALQSGNSQESVTEQDSKDSTYSLSSTLTLSKADYEKHKVYACEVTHQGLSSPVTKSFNRGEC | 1.27 ratio | 81.1 control=100 | 63.7 control=100
5 | GpH7-A5/GpH7-B3 variant N325_02A/GpL16-k0 (antibody, human IgG1, kappa, He Ab; IgG1; mutation in one H chain only) heavy 1: not shown heavy 2: not shown light: DIVMTQSPLSLPVTPGEPASISCQASESLVHSNRNTYLHWYLQKPGQSPQLLIYKVSNRFSGVPDRFSGSGSGTDFTLKISRVEAEDVGVYYCSQNTHVPPTFGQGTKVEIERTVAAPSVFIFPPSDEQLKSGTASVVCLLNNFYPREAKVQWKVDNALQSGNSQESVTEQDSKDSTYSLSSTLTLSKADYEKHKVYACEVTHQGLSSPVTKSFNRGEC | 1.31 ratio | 84.1 control=100 | 64.4 control=100
6 | GpH7-A5/GpH7-B3 variant N325_05P/GpL16-k0 (antibody, human IgG1, kappa, He Ab; IgG1; mutation in one H chain only) heavy 1: not shown heavy 2: not shown light: DIVMTQSPLSLPVTPGEPASISCQASESLVHSNRNTYLHWYLQKPGQSPQLLIYKVSNRFSGVPDRFSGSGSGTDFTLKISRVEAEDVGVYYCSQNTHVPPTFGQGTKVEIERTVAAPSVFIFPPSDEQLKSGTASVVCLLNNFYPREAKVQWKVDNALQSGNSQESVTEQDSKDSTYSLSSTLTLSKADYEKHKVYACEVTHQGLSSPVTKSFNRGEC | 1.63 ratio | 42.2 control=100 | 26 control=100
7 | GpH7-A5/GpH7-B3 variant N325_12R/GpL16-k0 (antibody, human IgG1, kappa, He Ab; IgG1; mutation in one H chain only) heavy 1: not shown heavy 2: not shown light: DIVMTQSPLSLPVTPGEPASISCQASESLVHSNRNTYLHWYLQKPGQSPQLLIYKVSNRFSGVPDRFSGSGSGTDFTLKISRVEAEDVGVYYCSQNTHVPPTFGQGTKVEIERTVAAPSVFIFPPSDEQLKSGTASVVCLLNNFYPREAKVQWKVDNALQSGNSQESVTEQDSKDSTYSLSSTLTLSKADYEKHKVYACEVTHQGLSSPVTKSFNRGEC | 1.37 ratio | 26.1 control=100 | 19.1 control=100
8 | GpH7-A5/GpH7-B3 variant N325_11K/GpL16-k0 (antibody, human IgG1, kappa, He Ab; IgG1; mutation in one H chain only) heavy 1: not shown heavy 2: not shown light: DIVMTQSPLSLPVTPGEPASISCQASESLVHSNRNTYLHWYLQKPGQSPQLLIYKVSNRFSGVPDRFSGSGSGTDFTLKISRVEAEDVGVYYCSQNTHVPPTFGQGTKVEIERTVAAPSVFIFPPSDEQLKSGTASVVCLLNNFYPREAKVQWKVDNALQSGNSQESVTEQDSKDSTYSLSSTLTLSKADYEKHKVYACEVTHQGLSSPVTKSFNRGEC | 1.57 ratio | 16.2 control=100 | 10.4 control=100
9 | GpH7-A5/GpH7-B3 variant N325_16H/GpL16-k0 (antibody, human IgG1, kappa, He Ab; IgG1; mutation in one H chain only) heavy 1: not shown heavy 2: not shown light: DIVMTQSPLSLPVTPGEPASISCQASESLVHSNRNTYLHWYLQKPGQSPQLLIYKVSNRFSGVPDRFSGSGSGTDFTLKISRVEAEDVGVYYCSQNTHVPPTFGQGTKVEIERTVAAPSVFIFPPSDEQLKSGTASVVCLLNNFYPREAKVQWKVDNALQSGNSQESVTEQDSKDSTYSLSSTLTLSKADYEKHKVYACEVTHQGLSSPVTKSFNRGEC | 1.27 ratio | 89 control=100 | 70.1 control=100
10 | GpH7-A5/GpH7-B3 variant I336_20W/GpL16-k0 (antibody, human IgG1, kappa, He Ab; IgG1; mutation in one H chain only) heavy 1: not shown heavy 2: not shown light: DIVMTQSPLSLPVTPGEPASISCQASESLVHSNRNTYLHWYLQKPGQSPQLLIYKVSNRFSGVPDRFSGSGSGTDFTLKISRVEAEDVGVYYCSQNTHVPPTFGQGTKVEIERTVAAPSVFIFPPSDEQLKSGTASVVCLLNNFYPREAKVQWKVDNALQSGNSQESVTEQDSKDSTYSLSSTLTLSKADYEKHKVYACEVTHQGLSSPVTKSFNRGEC | 1.5 ratio | 30.3 control=100 | 20.3 control=100
11 | GpH7-A5/GpH7-B3 variant P329_03V/GpL16-k0 (antibody, human IgG1, kappa, He Ab; IgG1; mutation in one H chain only) heavy 1: not shown heavy 2: not shown light: DIVMTQSPLSLPVTPGEPASISCQASESLVHSNRNTYLHWYLQKPGQSPQLLIYKVSNRFSGVPDRFSGSGSGTDFTLKISRVEAEDVGVYYCSQNTHVPPTFGQGTKVEIERTVAAPSVFIFPPSDEQLKSGTASVVCLLNNFYPREAKVQWKVDNALQSGNSQESVTEQDSKDSTYSLSSTLTLSKADYEKHKVYACEVTHQGLSSPVTKSFNRGEC | 1.4 ratio | 53.8 control=100 | 38.5 control=100
12 | GpH7-A5/GpH7-B3 variant A330_14T/GpL16-k0 (antibody, human IgG1, kappa, He Ab; IgG1; mutation in one H chain only) heavy 1: not shown heavy 2: not shown light: DIVMTQSPLSLPVTPGEPASISCQASESLVHSNRNTYLHWYLQKPGQSPQLLIYKVSNRFSGVPDRFSGSGSGTDFTLKISRVEAEDVGVYYCSQNTHVPPTFGQGTKVEIERTVAAPSVFIFPPSDEQLKSGTASVVCLLNNFYPREAKVQWKVDNALQSGNSQESVTEQDSKDSTYSLSSTLTLSKADYEKHKVYACEVTHQGLSSPVTKSFNRGEC | 1.23 ratio | 95.5 control=100 | 77.9 control=100

More lines, now with the values ahead:

Row | IIaR/IIb (He_2aR/2b) (FcγRIIa R [1]) | He/Con_2aR (IIaR binding) (FcγRIIa R [2]) | He/Con_2b (IIb binding) (FcγRIIb) | Binder
13 | 1.47 ratio | 42.7 control=100 | 29.1 control=100 | GpH7-A5/GpH7-B3 variant P329_06M/GpL16-k0 (antibody, human IgG1, kappa, He Ab; IgG1; mutation in one H chain only) heavy 1: not shown heavy 2: not shown light: DIVMTQSPLSLPVTPGEPASISCQASESLVHSNRNTYLHWYLQKPGQSPQLLIYKVSNRFSGVPDRFSGSGSGTDFTLKISRVEAEDVGVYYCSQNTHVPPTFGQGTKVEIERTVAAPSVFIFPPSDEQLKSGTASVVCLLNNFYPREAKVQWKVDNALQSGNSQESVTEQDSKDSTYSLSSTLTLSKADYEKHKVYACEVTHQGLSSPVTKSFNRGEC
14 | 1.27 ratio | 67.8 control=100 | 53.5 control=100 | GpH7-A5/GpH7-B3 variant P329_09D/GpL16-k0 (antibody, human IgG1, kappa, He Ab; IgG1; mutation in one H chain only; also called GpH7-A5/GpH7-B14/GpL16-k0) heavy 1: not shown heavy 2: not shown light: DIVMTQSPLSLPVTPGEPASISCQASESLVHSNRNTYLHWYLQKPGQSPQLLIYKVSNRFSGVPDRFSGSGSGTDFTLKISRVEAEDVGVYYCSQNTHVPPTFGQGTKVEIERTVAAPSVFIFPPSDEQLKSGTASVVCLLNNFYPREAKVQWKVDNALQSGNSQESVTEQDSKDSTYSLSSTLTLSKADYEKHKVYACEVTHQGLSSPVTKSFNRGEC
15 | 1.47 ratio | 42.8 control=100 | 29.1 control=100 | GpH7-A5/GpH7-B3 variant P329_08L/GpL16-k0 (antibody, human IgG1, kappa, He Ab; IgG1; mutation in one H chain only) heavy 1: not shown heavy 2: not shown light: DIVMTQSPLSLPVTPGEPASISCQASESLVHSNRNTYLHWYLQKPGQSPQLLIYKVSNRFSGVPDRFSGSGSGTDFTLKISRVEAEDVGVYYCSQNTHVPPTFGQGTKVEIERTVAAPSVFIFPPSDEQLKSGTASVVCLLNNFYPREAKVQWKVDNALQSGNSQESVTEQDSKDSTYSLSSTLTLSKADYEKHKVYACEVTHQGLSSPVTKSFNRGEC
16 | 1.44 ratio | 49.6 control=100 | 34.6 control=100 | GpH7-A5/GpH7-B3 variant P329_07I/GpL16-k0 (antibody, human IgG1, kappa, He Ab; IgG1; mutation in one H chain only) heavy 1: not shown heavy 2: not shown light: DIVMTQSPLSLPVTPGEPASISCQASESLVHSNRNTYLHWYLQKPGQSPQLLIYKVSNRFSGVPDRFSGSGSGTDFTLKISRVEAEDVGVYYCSQNTHVPPTFGQGTKVEIERTVAAPSVFIFPPSDEQLKSGTASVVCLLNNFYPREAKVQWKVDNALQSGNSQESVTEQDSKDSTYSLSSTLTLSKADYEKHKVYACEVTHQGLSSPVTKSFNRGEC
17 | 1.39 ratio | 44.7 control=100 | 32.2 control=100 | GpH7-A5/GpH7-B3 variant P329_04F/GpL16-k0 (antibody, human IgG1, kappa, He Ab; IgG1; mutation in one H chain only) heavy 1: not shown heavy 2: not shown light: DIVMTQSPLSLPVTPGEPASISCQASESLVHSNRNTYLHWYLQKPGQSPQLLIYKVSNRFSGVPDRFSGSGSGTDFTLKISRVEAEDVGVYYCSQNTHVPPTFGQGTKVEIERTVAAPSVFIFPPSDEQLKSGTASVVCLLNNFYPREAKVQWKVDNALQSGNSQESVTEQDSKDSTYSLSSTLTLSKADYEKHKVYACEVTHQGLSSPVTKSFNRGEC
